In one assay the target is HA-tagged LEF-1. In words: cell-based or functional assay.
Assay [1] has as its target T1, Endogenous β-catenin of SW480 human colon carcinoma cells (human, UniProt P35222 2-781).
T1 construct: whole, on cells
T1 sequence (looked up): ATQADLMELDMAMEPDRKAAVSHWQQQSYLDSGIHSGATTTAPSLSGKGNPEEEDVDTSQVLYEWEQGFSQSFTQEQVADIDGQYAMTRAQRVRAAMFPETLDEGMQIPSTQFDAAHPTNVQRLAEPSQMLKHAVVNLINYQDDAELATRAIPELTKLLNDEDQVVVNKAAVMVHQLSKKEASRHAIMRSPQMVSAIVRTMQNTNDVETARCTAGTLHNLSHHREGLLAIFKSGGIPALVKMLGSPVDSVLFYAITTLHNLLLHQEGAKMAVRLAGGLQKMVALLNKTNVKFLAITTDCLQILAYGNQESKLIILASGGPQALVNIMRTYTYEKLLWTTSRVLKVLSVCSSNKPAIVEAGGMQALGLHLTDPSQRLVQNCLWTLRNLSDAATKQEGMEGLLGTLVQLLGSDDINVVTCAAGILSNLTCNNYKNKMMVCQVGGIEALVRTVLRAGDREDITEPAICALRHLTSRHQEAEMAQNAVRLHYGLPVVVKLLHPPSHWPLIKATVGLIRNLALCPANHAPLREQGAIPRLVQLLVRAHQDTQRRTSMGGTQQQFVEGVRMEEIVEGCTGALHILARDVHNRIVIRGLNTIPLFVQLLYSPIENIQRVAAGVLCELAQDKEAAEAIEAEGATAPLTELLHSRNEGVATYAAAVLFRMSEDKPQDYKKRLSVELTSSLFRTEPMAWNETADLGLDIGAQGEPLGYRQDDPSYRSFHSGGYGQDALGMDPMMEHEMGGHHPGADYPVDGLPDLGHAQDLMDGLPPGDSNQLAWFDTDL
As to the kind of experiment: double immunofluorescence, transfected SW480 cells.

HA-tagged LEF-1, sequence (P27782 whole entry): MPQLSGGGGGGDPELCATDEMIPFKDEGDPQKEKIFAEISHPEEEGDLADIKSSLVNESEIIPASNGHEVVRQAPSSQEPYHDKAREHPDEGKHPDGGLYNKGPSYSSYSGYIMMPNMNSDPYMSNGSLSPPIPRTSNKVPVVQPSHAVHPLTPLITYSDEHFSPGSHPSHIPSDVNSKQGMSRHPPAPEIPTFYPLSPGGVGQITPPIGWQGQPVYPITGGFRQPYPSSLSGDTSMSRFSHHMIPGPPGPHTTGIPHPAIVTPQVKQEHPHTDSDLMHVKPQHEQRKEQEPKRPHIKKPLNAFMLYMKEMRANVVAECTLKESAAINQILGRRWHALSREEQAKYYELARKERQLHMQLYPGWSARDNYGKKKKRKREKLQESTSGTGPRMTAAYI

B1: Mouse β-catenin (transfected cDNA) (other, UniProt Q02248 2-781, looked up)
chain: ATQADLMELDMAMEPDRKAAVSHWQQQSYLDSGIHSGATTTAPSLSGKGNPEEEDVDTSQVLYEWEQGFSQSFTQEQVADIDGQYAMTRAQRVRAAMFPETLDEGMQIPSTQFDAAHPTNVQRLAEPSQMLKHAVVNLINYQDDAELATRAIPELTKLLNDEDQVVVNKAAVMVHQLSKKEASRHAIMRSPQMVSAIVRTMQNTNDVETARCTAGTLHNLSHHREGLLAIFKSGGIPALVKMLGSPVDSVLFYAITTLHNLLLHQEGAKMAVRLAGGLQKMVALLNKTNVKFLAITTDCLQILAYGNQESKLIILASGGPQALVNIMRTYTYEKLLWTTSRVLKVLSVCSSNKPAIVEAGGMQALGLHLTDPSQRLVQNCLWTLRNLSDAATKQEGMEGLLGTLVQLLGSDDINVVTCAAGILSNLTCNNYKNKMMVCQVGGIEALVRTVLRAGDREDITEPAICALRHLTSRHQEAEMAQNAVRLHYGLPVVVKLLHPPSHWPLIKATVGLIRNLALCPANHAPLREQGAIPRLVQLLVRAHQDTQRRTSMGGTQQQFVEGVRMEEIVEGCTGALHILARDVHNRIVIRGLNTIPLFVQLLYSPIENIQRVAAGVLCELAQDKEAAEAIEAEGATAPLTELLHSRNEGVATYAAAVLFRMSEDKPQDYKKRLSVELTSSLFRTEPMAWNETADLGLDIGAQGEALGYRQDDPSYRSFHSGGYGQDALGMDPMMEHEMGGHHPGADYPVDGLPDLGHAQDLMDGLPPGDSNQLAWFDTDL
In the case of B1, in the assay with HA-tagged LEF-1, the “luciferase activity (TOPFLASH reporter) in CHO cells” value was approximately 5 fold.

B2: HA-tagged chicken α-catenin (other)
chain: TAVTAGNVNFRWDPKSLEIRTLAVERLLEPLVTQVTTLVNTSNKGPSNKKRGRSKKAHVLAASVEQATENFLDKGDKIAKESQFLKEELVAAVEDVRKQGDLMKSASGEFADDPCSSVKRGNMVRAARALLSAVTRLLILADMADVYKLLVQLKVVEEGILKLRNAGTEQDLGIQYKALKPEVDKLNIMAAKRQQELKDVGHRDQMAAARGILQKNVPILYTASQACLQHFDVAAYKANRDLIYKQLQQAVTGISNAAQATASDDAAQQQGGGGELAYALNNFDKQIIVDPSTFSEQRFRPSLEERLESIISGAALMADSSCTRDDRRERIVAECNAVRQALQDLLSEYMGNAGRKERSDALNSAIDKMTKKTRDLRRQLRKAVMDHVSDSFLETNVPLLVLIEAARNGNEKEVKEYTQVFREHANKLIEVANLACSISNNEEGVKLVRMSASQLEALCPQVINAALALAAKPQSKLAQENMELFKEQWEKQVRVLTDAVDDITSIDDFLAVSENHILEDVNKCVIALQEKDVDGLDRTAGAIRGRAARVIHVVTSEMDNYEPGVYTEKVLEATKLLSNTVMPRFTEQVEAAVEALSSDPAQPMDENEFIDRSRLVYDGIRDIRKAVLMIRTPEELDDSDFETEDFDVRSKTSIQTEDDQLIAGQSARAIMAQLPQEQKAKIAEAVASFQEEKSKLDAEVSKWDDSGNDIIVLAKQMCMIMMEMTDFTRGKGPLKNTSDVISAAKKIAEAGSRMDKLGRTIADHCPDSASKQDLLAYLQRIALYCHQLNICSKVKAEVQNLGGELVVSGVDSAMSLIQAAKNLMNAVVQTVKASYVASTKYQKSQGMASLNLPAVSWKMKAPEKKPLVKREKQDETQTKIKRASQKKHVNPVQALSEFKAMESI
notes: also called HA α-catenin; not shown: 16-amino acids hemaglutinin (HA)-tag of the pCGN vector at the NH2-terminus
Consider B2, for which, in assay [1], the binding result is listed as “binds”.

The record behind these values is US20020045591A1 (published 2002).
